B1: Far upstream element-binding protein 2 (Homo sapiens), Q92945 (parent)
chain: MSDYSTGGPPPGPPPPAGGGGGAGGAGGGPPPGPPGAGDRGGGGPGGGGPGGGSAGGPSQPPGGGGPGIRKDAFADAVQRARQIAAKIGGDAATTVNNSTPDFGFGGQKRQLEDGDQPESKKLASQGDSISSQLGPIHPPPRTSMTEEYRVPDGMVGLIIGRGGEQINKIQQDSGCKVQISPDSGGLPERSVSLTGAPESVQKAKMMLDDIVSRGRGGPPGQFHDNANGGQNGTVQEIMIPAGKAGLVIGKGGETIKQLQERAGVKMILIQDGSQNTNVDKPLRIIGDPYKVQQACEMVMDILRERDQGGFGDRNEYGSRIGGGIDVPVPRHSVGVVIGRSGEMIKKIQNDAGVRIQFKQDDGTGPEKIAHIMGPPDRCEHAARIINDLLQSLRSGPPGPPGGPGMPPGGRGRGRGQGNWGPPGGEMTFSIPTHKCGLVIGRGGENVKAINQQTGAFVEISRQLPPNGDPNFKLFIIRGSPQQIDHAKQLIEEKIEGPLCPVGPGPGGPGPAGPMGPFNPGPFNQGPPGAPPHAGGPPPHQYPPQGWGNTYPQWQPPAPHDPSKAAAAAADPNAAWAAYYSHYYQQPPGPVPGPAPAPAAPPAQGEPPQPPPTGQSDYTKAWEEYYKKIGQQPQQPGAPPQQDYTKAWEEYYKKQAQVATGGGPGAPPGSQPDYSAAWAEYYRQQAAYYGQTPGPGGPQPPPTQQGQQQAQ

Variants of: B1
Settings: with akt1_human AKT1, P31749
akt1_human AKT1, P31749, sequence (P31749 whole entry): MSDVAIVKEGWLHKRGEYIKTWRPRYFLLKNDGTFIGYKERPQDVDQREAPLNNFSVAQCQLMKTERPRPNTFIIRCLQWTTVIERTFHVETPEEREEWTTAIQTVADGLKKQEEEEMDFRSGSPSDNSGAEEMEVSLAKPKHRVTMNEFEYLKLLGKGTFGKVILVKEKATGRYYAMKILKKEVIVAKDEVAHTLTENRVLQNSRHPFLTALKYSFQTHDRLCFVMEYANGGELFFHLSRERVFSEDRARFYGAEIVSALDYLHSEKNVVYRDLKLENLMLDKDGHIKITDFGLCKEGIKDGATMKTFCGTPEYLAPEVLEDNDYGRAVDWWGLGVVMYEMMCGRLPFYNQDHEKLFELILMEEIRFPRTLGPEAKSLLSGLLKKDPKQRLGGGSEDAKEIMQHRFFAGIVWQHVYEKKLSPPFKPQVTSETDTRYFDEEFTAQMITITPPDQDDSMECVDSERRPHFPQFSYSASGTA

Row | Variant | effect of a mutation on the interaction
1 | S193A | disrupting interaction
